Results from patent US20250236657A1 (TOSOH, published 2025).

Legend:
[1] = target: AAV2 S267A (adeno-associated virus serotype 2 (AAV2)) (UniProt P03135); assay: affinity HPLC, POROS AAVX resin, linear pH gradient 4.5 to 2.2, AAV2 peak top
[2] = target: AAV2 N382A (adeno-associated virus serotype 2 (AAV2)) (UniProt P03135); assay: as above
[3] = target: AAV2 H271Q (adeno-associated virus serotype 2 (AAV2)) (UniProt P03135); assay: as above
[4] = target: AAV2 R471A (adeno-associated virus serotype 2 (AAV2)) (UniProt P03135); assay: as above
[5] = target: AAV2 H271F (adeno-associated virus serotype 2 (AAV2)) (UniProt P03135); assay: as above
[6] = target: AAV2 S267T (adeno-associated virus serotype 2 (AAV2)) (UniProt P03135); assay: as above
[7] = target: AAV2 T503S (adeno-associated virus serotype 2 (AAV2)) (UniProt P03135); assay: as above
[8] = target: AAV2 H271A (adeno-associated virus serotype 2 (AAV2)) (UniProt P03135); assay: as above
[9] = target: AAV2 E499A (adeno-associated virus serotype 2 (AAV2)) (UniProt P03135); assay: as above
[10] = target: AAV2 D529E (adeno-associated virus serotype 2 (AAV2)) (UniProt P03135); assay: as above
[11] = target: AAV2 D529A (adeno-associated virus serotype 2 (AAV2)) (UniProt P03135); assay: as above
[12] = target: AAV2 S384A (adeno-associated virus serotype 2 (AAV2)) (UniProt P03135); assay: as above
[13] = target: AAV2 G383A (adeno-associated virus serotype 2 (AAV2)) (UniProt P03135); assay: as above
[14] = target: AAV2 Q263A (adeno-associated virus serotype 2 (AAV2)) (UniProt P03135); assay: as above
[15] = target: AAV2 (wild type), serotype 2 AAV with capsid region VP1 of SEQ ID NO: 99 (adeno-associated virus serotype 2 (AAV2)) (UniProt P03135); assay: as above
[16] = target: AAV2 Q385A (adeno-associated virus serotype 2 (AAV2)) (UniProt P03135); assay: as above
[17] = target: AAV2 H271T (adeno-associated virus serotype 2 (AAV2)) (UniProt P03135); assay: as above
[18] = target: AAV2 D528A (adeno-associated virus serotype 2 (AAV2)) (UniProt P03135); assay: as above
[19] = target: AAV2 S264A (adeno-associated virus serotype 2 (AAV2)) (UniProt P03135); assay: as above
[20] = target: AAV2 R471A (adeno-associated virus serotype 2 (AAV2)) (UniProt P03135); assay: affinity HPLC, POROS AAVX resin, linear pH gradient 6.0 to 2.0, AAV2 peak top
[21] = target: AAV2 H271F (adeno-associated virus serotype 2 (AAV2)) (UniProt P03135); assay: as above
[22] = target: AAV2 S267T (adeno-associated virus serotype 2 (AAV2)) (UniProt P03135); assay: as above
[23] = target: AAV2 H271A (adeno-associated virus serotype 2 (AAV2)) (UniProt P03135); assay: as above
[24] = target: AAV2 D529A (adeno-associated virus serotype 2 (AAV2)) (UniProt P03135); assay: as above
[25] = target: AAV2 G383A (adeno-associated virus serotype 2 (AAV2)) (UniProt P03135); assay: as above
[26] = target: AAV2 Q385A (adeno-associated virus serotype 2 (AAV2)) (UniProt P03135); assay: as above
[27] = target: AAV2 H271T (adeno-associated virus serotype 2 (AAV2)) (UniProt P03135); assay: as above
[28] = target: AAV2 D528A (adeno-associated virus serotype 2 (AAV2)) (UniProt P03135); assay: as above

Work on “POROS Capture Select AAVX Affinity Resin (manufactured by Thermo Fisher Scientific)” yielded an AAVX column elution time [1] of 48 min, an AAVX column elution time [2] of 47.9 min and an AAVX column elution time [3] of 48.1 min. The AAVX column elution time [4] was 48.1 min, the AAVX column elution time [5] was 48.1 min and the AAVX column elution time [6] was 48 min. It also gave an AAVX column elution time [7] of 48 min, an AAVX column elution time [8] of 48.2 min and an AAVX column elution time [9] of 47.8 min. It also gave an AAVX column elution time [10] of 48 min, an AAVX column elution time [11] of 47.8 min and an AAVX column elution time [12] of 48 min. For the same substance, the AAVX column elution time [13] was 48.1 min, the AAVX column elution time [14] was 48 min and the AAVX column elution time [15] was 48.2 min. For the same substance, the AAVX column elution time [16] was 47.9 min, the AAVX column elution time [17] was 47.9 min and the AAVX column elution time [18] was 47.8 min. For the same substance, the AAVX column elution time [19] was 48 min, the AAVX column elution time [20] was 59.4 min and the AAVX column elution time [21] was 59.3 min. The AAVX column elution time [22] was 59.2 min, the AAVX column elution time [23] was 59.4 min and the AAVX column elution time [24] was 59.3 min. The AAVX column elution time [25] was 59.3 min, the AAVX column elution time [26] was 59.3 min and the AAVX column elution time [27] was 59.3 min. It also gave an AAVX column elution time [28] of 59.1 min.
